# Reference: US20200155643
# Target: Recombinant human protein C inhibitor (PCI, SERPINA5) (UniProt P05154)
# Sequence (P05154 20-406): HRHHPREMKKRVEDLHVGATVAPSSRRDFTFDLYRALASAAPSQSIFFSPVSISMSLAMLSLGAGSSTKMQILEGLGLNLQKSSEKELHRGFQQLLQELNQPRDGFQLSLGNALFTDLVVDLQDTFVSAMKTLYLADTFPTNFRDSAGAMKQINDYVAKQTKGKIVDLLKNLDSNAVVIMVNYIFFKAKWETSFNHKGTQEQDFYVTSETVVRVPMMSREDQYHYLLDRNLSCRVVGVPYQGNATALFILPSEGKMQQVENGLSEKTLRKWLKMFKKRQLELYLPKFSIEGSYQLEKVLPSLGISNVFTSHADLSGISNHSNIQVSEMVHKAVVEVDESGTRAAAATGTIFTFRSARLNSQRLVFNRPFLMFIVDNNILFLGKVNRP
row,Substance,cleavage of PCI (anti-PCI immunoblot)
1,Recombinant mouse testisin (R&D Systems 6820-SE-10),PCI is a substrate for testisin ... testisin cleaves PCI at a second site
2,Recombinant human hepsin (R&D Systems 4776-SE-10),resulted in the appearance of cleaved forms of PCI
